Consider three molecules from article PMC7280502, “Structure and mechanism of the Nap adhesion complex from the human pathogen Mycoplasma genitalium” (Nature Communications, 2020).

The term stoichiometry N denotes the number of molecules, sites or subunits per partner or assembly.

The target of assay [1] is P140–P110 heterodimer of the purified Nap complex (full-length proteins, P110His strain) (Mycoplasma genitalium G37 (endogenous) | Mycoplasma genitalium G37) (UniProt P20796). Description: cryo-EM structure; single-particle cryo-EM of the Nap complex purified from the M. genitalium P110His strain in octylglucoside, 25 μg/ml; 9.8 Å; rigid-body fitting of P140 alone and P110 alone; closed conformation.

Assay [2] deals with T1, extracellular region of P140 (residues 23–1351) (Mycoplasma genitalium (strain G37), UniProt P20796 23-1351).
T1 construct: also called extracellular P140; source: E. coli B834 (DE3), purified (Histrap, Superdex 200), same protocol as for P110N
T1 sequence: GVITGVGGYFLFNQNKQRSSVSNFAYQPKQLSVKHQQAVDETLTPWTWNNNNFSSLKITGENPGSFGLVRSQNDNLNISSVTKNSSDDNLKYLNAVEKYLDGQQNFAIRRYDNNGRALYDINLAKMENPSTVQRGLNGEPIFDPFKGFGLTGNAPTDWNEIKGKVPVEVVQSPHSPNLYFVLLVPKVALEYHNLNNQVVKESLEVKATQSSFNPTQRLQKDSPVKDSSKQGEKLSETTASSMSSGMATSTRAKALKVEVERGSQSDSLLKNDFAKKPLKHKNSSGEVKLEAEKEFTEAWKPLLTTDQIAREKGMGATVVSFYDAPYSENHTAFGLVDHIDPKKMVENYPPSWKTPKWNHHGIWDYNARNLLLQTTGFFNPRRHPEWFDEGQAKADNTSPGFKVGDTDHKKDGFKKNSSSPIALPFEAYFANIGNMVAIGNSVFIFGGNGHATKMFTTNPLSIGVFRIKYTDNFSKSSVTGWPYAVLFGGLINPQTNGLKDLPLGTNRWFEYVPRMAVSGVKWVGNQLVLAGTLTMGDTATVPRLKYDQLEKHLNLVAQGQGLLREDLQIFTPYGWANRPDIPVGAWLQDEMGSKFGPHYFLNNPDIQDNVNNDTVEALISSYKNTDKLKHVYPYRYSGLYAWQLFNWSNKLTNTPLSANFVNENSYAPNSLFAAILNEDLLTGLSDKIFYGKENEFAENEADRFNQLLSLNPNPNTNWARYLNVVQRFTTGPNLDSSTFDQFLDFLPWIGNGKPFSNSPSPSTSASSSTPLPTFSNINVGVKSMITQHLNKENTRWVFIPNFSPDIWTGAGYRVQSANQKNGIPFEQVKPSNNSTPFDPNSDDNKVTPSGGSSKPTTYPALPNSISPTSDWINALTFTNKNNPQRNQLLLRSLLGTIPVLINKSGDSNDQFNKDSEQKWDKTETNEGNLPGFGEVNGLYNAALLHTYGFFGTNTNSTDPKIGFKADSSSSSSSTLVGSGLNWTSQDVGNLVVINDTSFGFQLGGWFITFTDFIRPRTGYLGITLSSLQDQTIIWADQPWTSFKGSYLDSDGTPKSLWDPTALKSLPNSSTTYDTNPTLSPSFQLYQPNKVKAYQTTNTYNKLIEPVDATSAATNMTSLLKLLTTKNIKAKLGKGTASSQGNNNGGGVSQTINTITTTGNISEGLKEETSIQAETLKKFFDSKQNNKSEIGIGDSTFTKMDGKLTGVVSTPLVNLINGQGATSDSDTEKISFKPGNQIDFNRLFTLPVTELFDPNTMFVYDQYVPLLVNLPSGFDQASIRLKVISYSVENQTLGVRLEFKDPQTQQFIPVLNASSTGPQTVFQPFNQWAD
Description: cryo-EM structure; single-particle cryo-EM of the purified P140–P110 heterodimer (complete extracellular regions) at 20 μg/ml; 4.1 Å, non-isotropic; X-ray P140–P110N structure fitted as a rigid body. The following applies: both partners purified.

Assay [3] concerns the target T1, extracellular region of P140 (residues …). Put plainly: crystal structure; P140 and P110N mixed 1:1 and incubated 30 min at room temperature; crystals from 23% PEG 500MME, 4% PGA, 0.1 M sodium cacodylate pH 6.5, 20 °C; space group P2(1), four heterodimers in the asymmetric unit; 2.65 Å. The following applies: both partners purified.

In the case of “P140–P110 heterodimer of the purified Nap complex (full-length proteins, P110His strain), P20796 59-1444; P22747 26-1053”, in assay [1], the stoichiometry N is 2.

B1: extracellular region of P110 (residues 23–938) (domain or fragment)
chain: ALANTFLVKEDSKNVTAYTPFATPITDSKSDLVSLAQLDSSYQIADQTIHNTNLFVLFKSRDVKVKYESSGSNNISFDSTSQGEKPSYVVEFTNSTNIGIKWTMVKKYQLDVPNVSSDMNQVLKNLILEQPLTKYTLNSSLAKEKGKTQREVHLGSGQANQWTSQRNQHDLNNNPSPNASTGFKLTTGNAYRKLSESWPIYEPIDGTKQGKGKDSSGWSSTEENEAKNDAPSVSGGGSSSGTFNKYLNTKQALESIGILFDDQTPRNVITQLYYASTSKLAVTNNHIVVMGNSFLPSMWYWVVERSAQENASNKPTWFANTNLDWGEDKQKQFVENQLGYKETTSTNSHNFHSKSFTQPAYLISGIDSVNDQIIFSGFKAGSVGYDSSSSSSSSSSSSTKDQALAWSTTTSLDSKTGYKDLVTNDTGLNGPINGSFSIQDTFSFVVPYSGNHTNNGTTGPIKTAYPVKKDQKSTVKINSLINATPLNSYGDEGIGVFDALGLNYNFKSNQERLPSRTDQIFVYGIVSPNELRSAKSSADSTGSDTKVNWSNTQSRYLPVPYNYSEGIIDADGFKRPENRGASVTTFSGLKSIAPDGFANSIANFSVGLKAGIDPNPVMSGKKANYGAVVLTRGGVVRLNFNPGNDSLLSTTDNNIAPISFSFTPFTAAESAVDLTTFKEVTYNQESGLWSYIFDSSLKPSHDGKQTPVTDNMGFSVITVSRTGIELNQDQATTTLDVAPSALAVQSGIQSTTQTLTGVLPLSEEFSAVIAKDSDQNKIDIYKNNNGLFEIDTQLSNSVATNNGGLAPSYTENRVDAWGKVEFADNSVLQARNLVDKTVDEIINTPEILNSFFRFTPAFEDQKATLVATKQSDTSLSVSPRIQFLDGNFYDLNSTIAGVPLNIGFPSRVFAGFAALP
notes: P110, product of gene MG_192 of Mycoplasma genitalium strain G37, residues 23–938 (complete extracellular region), amplified from a synthetic clone; source: E. coli B834 (DE3), purified (Histrap, Superdex 200), same protocol as for P110N
In the case of B1, in assay [2], the binding result is reported as “binds”.

B2: N-terminal domain of P110 (P110N: residues 23–827) (domain or fragment)
chain: ALANTFLVKEDSKNVTAYTPFATPITDSKSDLVSLAQLDSSYQIADQTIHNTNLFVLFKSRDVKVKYESSGSNNISFDSTSQGEKPSYVVEFTNSTNIGIKWTMVKKYQLDVPNVSSDMNQVLKNLILEQPLTKYTLNSSLAKEKGKTQREVHLGSGQANQWTSQRNQHDLNNNPSPNASTGFKLTTGNAYRKLSESWPIYEPIDGTKQGKGKDSSGWSSTEENEAKNDAPSVSGGGSSSGTFNKYLNTKQALESIGILFDDQTPRNVITQLYYASTSKLAVTNNHIVVMGNSFLPSMWYWVVERSAQENASNKPTWFANTNLDWGEDKQKQFVENQLGYKETTSTNSHNFHSKSFTQPAYLISGIDSVNDQIIFSGFKAGSVGYDSSSSSSSSSSSSTKDQALAWSTTTSLDSKTGYKDLVTNDTGLNGPINGSFSIQDTFSFVVPYSGNHTNNGTTGPIKTAYPVKKDQKSTVKINSLINATPLNSYGDEGIGVFDALGLNYNFKSNQERLPSRTDQIFVYGIVSPNELRSAKSSADSTGSDTKVNWSNTQSRYLPVPYNYSEGIIDADGFKRPENRGASVTTFSGLKSIAPDGFANSIANFSVGLKAGIDPNPVMSGKKANYGAVVLTRGGVVRLNFNPGNDSLLSTTDNNIAPISFSFTPFTAAESAVDLTTFKEVTYNQESGLWSYIFDSSLKPSHDGKQTPVTDNMGFSVITVSRTGIELNQDQATTTLDVAPSALAVQSGIQSTTQTLTGVLPLSEEFSAVIAKDSDQNKIDIYKNNNGLFEIDTQLSNSVATNNGGL
notes: P110, product of gene MG_192 of Mycoplasma genitalium strain G37, residues 23–827 (N-terminal domain), amplified from a synthetic clone and cloned into pOPINE; source: E. coli B834 (DE3), purified (Histrap, Superdex 200)
As for B2, in assay [3], the binding result was “binds”.
